Measurements published in patent US20070015194A1 (RAMOT AT TEL AVIV UNIVERSITY, published 2007).

Molecular target: T1, CC2D1A protein (coiled-coil and C2 domain containing 1A), wild type, human, GenBank Accession No. NP-060191 (human, UniProt Q6P1N0 1-951)
T1 construct: Endogenous protein in lysates of lymphoblast or lymphoblastoid cells from unaffected individuals; It is the long isoform of 951 amino acids, seen as a band of about 104 kDa; also called FLJ20241; wild type protein
T1 sequence: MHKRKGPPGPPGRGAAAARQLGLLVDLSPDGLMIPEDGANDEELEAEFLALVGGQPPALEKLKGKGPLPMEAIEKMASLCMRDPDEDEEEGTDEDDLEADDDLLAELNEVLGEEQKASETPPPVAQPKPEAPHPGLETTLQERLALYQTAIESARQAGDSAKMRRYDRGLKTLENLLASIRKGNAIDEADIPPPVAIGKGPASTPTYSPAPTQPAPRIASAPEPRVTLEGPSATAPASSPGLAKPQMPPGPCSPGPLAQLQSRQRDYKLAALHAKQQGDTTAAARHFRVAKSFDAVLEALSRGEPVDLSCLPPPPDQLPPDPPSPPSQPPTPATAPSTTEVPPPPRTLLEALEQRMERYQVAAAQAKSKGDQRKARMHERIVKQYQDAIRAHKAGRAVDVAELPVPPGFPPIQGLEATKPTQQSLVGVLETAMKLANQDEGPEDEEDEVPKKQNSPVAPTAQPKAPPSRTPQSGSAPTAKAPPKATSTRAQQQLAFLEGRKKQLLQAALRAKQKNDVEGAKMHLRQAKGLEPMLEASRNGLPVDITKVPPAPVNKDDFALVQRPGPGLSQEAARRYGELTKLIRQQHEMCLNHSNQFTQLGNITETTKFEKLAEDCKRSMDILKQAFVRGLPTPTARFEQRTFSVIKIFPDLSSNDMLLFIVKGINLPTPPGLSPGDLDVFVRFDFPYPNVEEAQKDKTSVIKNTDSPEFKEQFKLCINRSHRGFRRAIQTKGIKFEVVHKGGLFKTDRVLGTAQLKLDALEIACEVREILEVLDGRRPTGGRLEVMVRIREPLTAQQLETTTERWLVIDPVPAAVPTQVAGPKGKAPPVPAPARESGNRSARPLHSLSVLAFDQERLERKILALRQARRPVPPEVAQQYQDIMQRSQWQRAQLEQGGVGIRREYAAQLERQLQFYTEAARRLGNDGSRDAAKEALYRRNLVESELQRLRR
Test: co-immunoprecipitation of endogenous proteins from control lymphoblastoid cell extracts with anti-CC2D1A antibody, Western blot with anti-p50 (data not shown)
Description: Western blot—Lymphoblast cell proteins were subjected to Western blot analysis using the CC2D1A antibody. Briefly, cells were washed twice with PBS and lysed at 4° C. with lysis buffer (0.6% NP40 and protease inhibitors). After 15 minutes of incubation, cell lysates were centrifuged for 5 minutes at 14,000 rpm and supernatants were collected. Protein concentrations were determined using the BCA Protein Assay Reagent Kit (PIERCE). Whole-cell proteins (approximately 20 μg) were subjected to 7.5% SDS-PAGE and transferred to nitrocellulose membranes. The membranes were blocked for 30 minutes at room temperature with 5% skim milk in Tris-buffer (10 mM Tris, 150 mM NaCl, and 0.1% Tween-20) and subsequently incubated with anti-CC2D1A rabbit polyclonal antibody (BL695, Bethyl laboratories) diluted 1:20000, rabbit polyclonal anti-emerin (sc-15378, Santa Cruz Biotechnology) diluted 1:5000, mouse monoclonal antibody anti-NF-κB p50 (sc-8414, Santa Cruz Biotechnology) diluted 1:1000 or mouse monoclonal antibody p65 (sc-8008, Santa Cruz Biotechnology) diluted 1:5000. After washing and subsequent incubation for 1 hour with horseradish peroxidase coupled to anti-rabbit IgG or mouse IgG respectively (Jackson ImmunoResearch Laboratories, West Grove, Pa.), immunoreactive proteins were visualized by an ECL (enhanced chemiluminescence super signal) Detection Kit (PIERCE). […]

- binding result: no binding
B1: p50 subunit of NF-κB (other, human, UniProt P19838 1-433, looked up)
chain: MAEDDPYLGRPEQMFHLDPSLTHTIFNPEVFQPQMALPTDGPYLQILEQPKQRGFRFRYVCEGPSHGGLPGASSEKNKKSYPQVKICNYVGPAKVIVQLVTNGKNIHLHAHSLVGKHCEDGICTVTAGPKDMVVGFANLGILHVTKKKVFETLEARMTEACIRGYNPGLLVHPDLAYLQAEGGGDRQLGDREKELIRQAALQQTKEMDLSVVRLMFTAFLPDSTGSFTRRLEPVVSDAIYDSKAPNASNLKIVRMDRTAGCVTGGEEIYLLCDKVQKDDIQIRFYEEEENGGVWEGFGDFSPTDVHRQFAIVFKTPKYKDINITKPASVFVQLRRKSDLETSEPKPFLYYPEIKDKEEVQRKRQKLMPNFSDSFGGGSGAGAGGGGMFGSGGGGGGTGSTGPGYSFPHYGFPTYGGITFHPGTTKSNAGMKHG
notes: Endogenous protein; also called NF-κB p50
